Legend:
[1] = target: T1, released HMG1 from conditioned medium of necrotic 293H cells (human, UniProt P09429 1-215); test: sandwich ELISA: antibody titrated and captured on anti-human IgG Fc, released HMG1 in solution, mouse anti-HMGB1 detection, OD 450
T1 construct: also called necrotic HMG1
T1 sequence (looked up): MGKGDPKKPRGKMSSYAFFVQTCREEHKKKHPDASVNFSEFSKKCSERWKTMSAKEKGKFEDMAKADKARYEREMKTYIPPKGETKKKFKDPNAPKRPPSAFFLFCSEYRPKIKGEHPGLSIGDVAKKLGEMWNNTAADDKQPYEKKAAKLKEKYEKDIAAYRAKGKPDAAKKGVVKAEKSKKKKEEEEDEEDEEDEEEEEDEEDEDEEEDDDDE
Method: (§1) Sandwich ELISA (soluble HMG1): Immunoplates (EIA/RIA plate, High binding, Costar) were coated with anti human IgG Fc at 10 μg/ml in PBS (pH 7.2) and incubated at 4° C. overnight. The coating reagent was removed and the plates were rinsed briefly with PBS. The plates were then blocked with 4% milk for 1 hour at 37° C. and rinsed with PBS. The anti-HMG1 antibodies were diluted in 4% milk. For serial dilutions, the antibodies were used at a starting concentration of 20 μg/ml. The diluted anti-HMG1 antibodies were then added into plate and incubated for 1 hr at 37° C. The plate was then washed 10 times with PBST (PBS/0.1% tween 20) and incubate with antigen (HMGB1, 2 μg/ml; or 0.7 μg/ml for native HMGB1) in 4% milk and incubated at 37° C. for 1 h. The plate was then wash 10 times and incubated with mouse anti-HMGB1, 1 μg/ml in 4% milk at 37° C. for 1 h. The plate was washed 10 times and incubated with anti-mouse IgG-HRP at 1:1000 at 37° C. for 1 h. The plate was then washed and developed. HRP activity was detected with Sureblue HRP substrate (KPL). Plates were read at 450 nm using a Kinetic Microplate Reader (Molecular Devices).

[2] = target: T2, HMGB1 C-terminal tail peptide 188-215 (UniProt P09429 188-215, biotinylated); test: ELISA on biotinylated overlapping peptides
T2 peptide (looked up): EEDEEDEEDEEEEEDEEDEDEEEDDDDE
Method: (§2) The plate was then blocked with 4% milk powder dissolved in PBS at 37° C. for 1 hour. The blocking solution was removed and replaced with human anti-HMG1 antibodies at various concentrations (see FIGS. 5A-B). […] HRP activity was detected with Sureblue HRP substrate (KPL). Plates were read at 450 nm using a Kinetic Microplate Reader (Molecular Devices). […] After washing and blocking with 1% BSA in PBS, the biotinylated peptides were individually added into the avidin coated wells and incubated for 30 min at room temperature. The serial diluted antibody G4, S16 and S6 at the initial concentration at 10 μg/ml were then transferred into the wells followed by adding mouse anti human IgG-HRP conjugate (Pierce). Detection was accomplished by adding 50 μl of tetramethylbenzidine (TMB) substrate (KPL) and the absorbance was read at 450 nm.

[3] = target: T3, HMGB1 B-box peptide 108-138 (UniProt P09429 108-138, biotinylated); test: ELISA on biotinylated overlapping peptides
T3 peptide (looked up): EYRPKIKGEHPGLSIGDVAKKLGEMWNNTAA
Method: as §2

[4] = target: T4, HMG1 B Box peptide amino acids 91-169; test: ELISA, HMG1 B Box peptide 91-169 coated at 10 ug/ml, antibody titrated, anti-human IgG-HRP, OD 450
T4 construct: also called HMG1 peptide 91-169
T4 peptide: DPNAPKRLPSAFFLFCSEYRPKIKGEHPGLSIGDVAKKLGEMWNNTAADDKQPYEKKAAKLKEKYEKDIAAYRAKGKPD
Method: as §2

[5] = target: T4, HMG1 B Box peptide amino acids 91-169; test: ELISA, HMG1 B Box peptide 91-169 coated at 10 ug/ml, antibody titrated, OD 450
Summary of the method: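 Plates blocked with 4% milk/PBS, or biotinylated peptides captured on avidin wells after 1% BSA blocking (30 min RT). Human anti-HMG1 antibodies titrated or serially diluted from 10 μg/ml, detected with anti-human IgG-HRP and TMB substrate, absorbance at 450 nm.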

[6] = target: T5, activated HMG1 from LPS stimulated THP-1 cells (human, UniProt P09429 1-215); test: cell-based or functional assay
T5 sequence (looked up): T1 sequence (looked up)

[7] = target: T6, HMG2 coated on ELISA plates (Bos taurus (Bovine), UniProt P40673 2-209); test: direct ELISA, HMGB2 coated at 5 ug/mL, antibody at 10 ug/mL, anti-human kappa/lambda-HRP, OD 490
T6 construct: also called HMGB2; HMBG2
T6 sequence: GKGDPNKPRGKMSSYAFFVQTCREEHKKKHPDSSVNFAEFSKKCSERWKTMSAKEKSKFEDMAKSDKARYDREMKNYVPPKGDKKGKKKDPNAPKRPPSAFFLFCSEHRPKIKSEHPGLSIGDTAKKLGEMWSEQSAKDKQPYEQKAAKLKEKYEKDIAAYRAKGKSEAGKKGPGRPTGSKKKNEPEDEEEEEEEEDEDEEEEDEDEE
Method: Binding to HMG1 vs. HMG2: Ultra high-binding ELISA plates (ThermoLab systems, #3855) were coated with either 5 ug/mL of Calf thymus HMGB1 or HMBG2 diluted in 10 mM Phosphate buffered saline (PBS), pH 7.2 and incubate overnight at 4 degrees. The plates were washed twice with Ca and Mg free PBS and 100 microliters of anti-HMGB1 antibody diluted in 10 mM PBS, pH 7.2+1% bovine serum albumin (BSA) to a final concentration of 10 ug/mL was added to each well and the plates were incubated 1 hour at room temperature. The wells were washed three times with 100 μl of PBS, pH 7.2. HRP labeled goat-anti-human IgG Kappa-chain (KPL, #14-10-10) and goat-anti-human IgG Lambda-chain (KPL, #14-10-11) were diluted in 10 mM PBS+1% BSA 1:1000 and 100 μl were added to each well and incubated for 1 hour at room temperature. The wells were then washed three times with 100 μl of PBS, pH 7.2. OPD substrate (Pierce chemical company, #34006) was prepared following the manufacturers instructions and 100 μl of prepared substrate was added to each well and the plates incubated at room temperature in the dark for 20-30 minutes. The reaction was stopped with the addition of 100 μl of 2M H₂SO₄, and the plates read on a plate reader at a wavelength of 490 nm.

[8] = target: T7, recombinant HMG1 produced in E. coli as a calmodulin binding protein (CBP) fusion (human); test: sandwich ELISA: antibody titrated and captured on anti-human IgG Fc, soluble recombinant HMG1 at 2 ug/ml, mouse anti-HMGB1 and anti-mouse IgG-HRP, OD 450
T7 construct: also called rHMG1; rHMGB1
Method: as §1

B1: human anti-HMG1 antibody G4 (antibody, IgG1, V domains shown)
VH: EVQLLESGGGLVQPGGSLRLSCAASGFTFSWYDMTWVRQAPGKGLEWVSSISPSGGYTKYADSVKGRFTISRDNSKNTLYLQMNSLRAEDTAVYYCTTEFYDYLDVWGKGTTVTVSS
VL: DIQMTQSPGTLSLSPGEGATLSCRASQSVSSTYLAWYQQKPGQAPRLLIYEASKRATGTPARFSGSGSGTDFTLSISSLEPEDFAVYYCQHRHNWPPQWTFGQGTKVEVK
notes: full length IgG1 made from a human Fab phage clone; also called ATCC PTA-6258
binding result [1]: binds | binding result [2]: binds | binding result [3]: binds | binding result [4]: binds

B2: human anti-HMG1 antibody S6 (antibody, V domains shown)
VH: EVQLLESGGGLVQPGGSLRLSCAASGFTFSWYDMSWVRQAPGKGLEWVSRISPSGGYTMYADSVKGRFTISRDNSKNTLYLQMNSLRAEDTAVYYCARLEVGATSGGTAFDIWGQGTMVTVSS
VL: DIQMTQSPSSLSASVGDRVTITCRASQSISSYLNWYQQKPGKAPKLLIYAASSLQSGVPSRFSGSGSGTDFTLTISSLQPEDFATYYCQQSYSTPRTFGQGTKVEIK
notes: full length IgG1 made from a human Fab phage clone; two paragraphs print 'S4' for the PTA-6143 deposit; also called ATCC PTA-6143
binding result [5]: no binding (tested: 10 ug/ml (log 1.0))

B3: human anti-HMG1 antibody E11 (antibody, IgG1, V domains shown)
VH: EVQLLESGGGLVQPGGSLRLSCAASGFTFSRYQMNWVRQAPGKGLEWVSSISPSGGHTHYADSVKGRFTISRDNSKNTLYLQMNSLRAEDTAVYYCAKDGRQGKISTVDHWGQGTLVTVSS
VL: DIQMTQSPGTLSLSPGERATLSCRASQSVRSNFLAWYQQKPGQAPRLLIYGASRRASGIPDRFSGSGFGADFTLSISRLEPEDFAVYYCQQYGSSPNTFGQGSRVEIK
notes: full length IgG1 made from a human Fab phage clone
IC50 nm IL-6 Native HMGB [6]: 1.73 nM | binding result [7]: binds | binding result [5]: no binding (tested: 10 ug/ml (log 1.0))

B4: human anti-HMG1 antibody S16 (antibody, IgG1, V domains shown)
VH: EVQLLESGGGLVQPGGSLRLSCAASGFTFSWYSMLWVRQAPGKGLEWVSYISPSGGFTNYADSVKGRFTISRDNSKNTLYLQMNSLRAEDTAVYYCARWDYNSGWYYDHWGQGTLVTVSS
VL: DIQMTQSPDTLSLSPGERATLSCRASQSVNSRNLAWYQQKPGQAPRLLIYGASTRATGIPDRFSGSVSGTEFTLTISSLQPDDFATYYCQQYNSYFTFGQGTKLEIK
notes: full length IgG1 made from a human Fab phage clone; also called ATCC PTA-6259
IC50 nm IL-6 Native HMGB [6]: 38.9 nM | binding result [7]: binds | EC50 (read off the curve) [8]: ~0.08 µg/mL | binding result [4]: binds
